{"source": "paper PMC10148881", "about": "“Recognition of an Ala-rich C-degron by the E3 ligase Pirh2” (Nature Communications, 2023)", "target": "Ala6/C-degron peptide (sequence: …)", "experiment": "ITC", "data": [{"substance": "WT Pirh2 I110D", "values": [{"measurement": "Kd", "result": 40, "unit": "µM"}]}]}
